Results published in article PMC9065133.
Several values for one entry are separate records, joined by “and”; a condition that tells them apart may be missing. Equal values may be shown once.

Legend:
Assay in all cases: SEC-MALLS
[1] = biological target: MVV IN H12N (maedi-visna virus (KV1772 isolate))
[2] = biological target: MVV IN QQ207GP (maedi-visna virus (KV1772 isolate))
[3] = biological target: MVV IN QQQ211PGG (maedi-visna virus (KV1772 isolate))
[4] = biological target: MVV IN chimera QQQ211PFV304-314 (portion of the PFV IN CCD-CTD linker between MVV IN Gln210 and Gln214) (maedi-visna virus (KV1772 isolate) | prototype foamy virus (PFV))
[5] = biological target: maedi-visna virus (MVV) integrase, wild type, KV1772 isolate (maedi-visna virus (KV1772 isolate))
MVV IN E154Q = conditions: IN injected at 2 mg/mL (bar); Superdex-200 column; parent: est. 170; read off a plot
MVV IN F223A = conditions: IN injected at 2 mg/mL (bar); Superdex-200 column; parent: est. 170; read off a plot
MVV IN H12N = conditions: IN injected at 2 mg/mL (bar); Superdex-200 column; parent: est. 170; read off a plot
MVV IN I272E = conditions: IN injected at 2 mg/mL (bar); Superdex-200 column; parent: est. 170; read off a plot
MVV IN QQ207GP = conditions: IN injected at 2 mg/mL (bar); Superdex-200 column; parent: est. 170; read off a plot
MVV IN QQQ211PGG = conditions: IN injected at 2 mg/mL (bar); Superdex-200 column; parent: est. 170; read off a plot
MVV IN R231E = conditions: IN injected at 2 mg/mL (bar); Superdex-200 column; parent: est. 170; read off a plot
MVV IN V252A = conditions: IN injected at 2 mg/mL (bar); Superdex-200 column; parent: est. 170; read off a plot
MVV IN V252D = conditions: IN injected at 2 mg/mL (bar); Superdex-200 column; parent: est. 170; read off a plot
MVV IN V263E = conditions: IN injected at 2 mg/mL (bar); Superdex-200 column; parent: est. 170; read off a plot
MVV IN W245A = conditions: IN injected at 2 mg/mL (bar); Superdex-200 column; parent: est. 170; read off a plot
MVV IN W245E = conditions: IN injected at 2 mg/mL (bar); Superdex-200 column; parent: est. 170; read off a plot
MVV IN W245L = conditions: IN injected at 2 mg/mL (bar); Superdex-200 column; parent: est. 170; read off a plot
MVV IN Y225A = conditions: IN injected at 2 mg/mL (bar); Superdex-200 column; parent: est. 170; read off a plot
MVV IN Y261A = conditions: IN injected at 2 mg/mL (bar); Superdex-200 column; parent: est. 170; read off a plot
MVV IN Y261E = conditions: IN injected at 2 mg/mL (bar); Superdex-200 column; parent: est. 170; read off a plot

maedi-visna virus (MVV) integrase, wild type, KV1772 isolate, sequence (P03370 1226-1506 limits assumed): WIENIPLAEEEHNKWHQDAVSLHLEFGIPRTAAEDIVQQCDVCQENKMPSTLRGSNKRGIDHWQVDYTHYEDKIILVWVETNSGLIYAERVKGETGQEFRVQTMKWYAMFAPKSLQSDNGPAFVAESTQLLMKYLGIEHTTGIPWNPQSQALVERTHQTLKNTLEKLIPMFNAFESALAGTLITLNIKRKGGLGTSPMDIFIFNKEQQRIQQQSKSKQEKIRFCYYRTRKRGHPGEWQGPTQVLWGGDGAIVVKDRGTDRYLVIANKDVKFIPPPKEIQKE

## MVV IN H12N (enzyme)
[1]
  stoichiometry N: 2

## MVV IN QQ207GP (enzyme)
[2]
  stoichiometry N: 2

## MVV IN QQQ211PGG (enzyme)
[3]
  stoichiometry N: 2

## MVV IN chimera QQQ211PFV304-314 (portion of the PFV IN CCD-CTD linker between MVV IN Gln210 and Gln214) (enzyme)
[4]
  stoichiometry N: 2

## maedi-visna virus (MVV) integrase, wild type, KV1772 isolate (enzyme)
[5]
  stoichiometry N: 4 and 8

## maedi-visna virus (MVV) integrase, wild type, KV1772 isolate E154Q
MVV IN E154Q
  other: average molecular mass: 180 kDa

## maedi-visna virus (MVV) integrase, wild type, KV1772 isolate F223A
MVV IN F223A
  other: average molecular mass: 120 kDa

## maedi-visna virus (MVV) integrase, wild type, KV1772 isolate H12N
MVV IN H12N
  other: average molecular mass: 40 kDa

## maedi-visna virus (MVV) integrase, wild type, KV1772 isolate I272E
MVV IN I272E
  other: average molecular mass: 100 kDa

## maedi-visna virus (MVV) integrase, wild type, KV1772 isolate Q207G; Q208P
MVV IN QQ207GP
  other: average molecular mass: 65 kDa

## maedi-visna virus (MVV) integrase, wild type, KV1772 isolate Q211P; Q212G; Q213G
MVV IN QQQ211PGG
  other: average molecular mass: 65 kDa

## maedi-visna virus (MVV) integrase, wild type, KV1772 isolate R231E
MVV IN R231E
  other: average molecular mass: 180 kDa

## maedi-visna virus (MVV) integrase, wild type, KV1772 isolate V252A
MVV IN V252A
  other: average molecular mass: 120 kDa

## maedi-visna virus (MVV) integrase, wild type, KV1772 isolate V252D
MVV IN V252D
  other: average molecular mass: 80 kDa

## maedi-visna virus (MVV) integrase, wild type, KV1772 isolate V263E
MVV IN V263E
  other: average molecular mass: 110 kDa

## maedi-visna virus (MVV) integrase, wild type, KV1772 isolate W245A
MVV IN W245A
  other: average molecular mass: 120 kDa

## maedi-visna virus (MVV) integrase, wild type, KV1772 isolate W245E
MVV IN W245E
  other: average molecular mass: 90 kDa

## maedi-visna virus (MVV) integrase, wild type, KV1772 isolate W245L
MVV IN W245L
  other: average molecular mass: 110 kDa

## maedi-visna virus (MVV) integrase, wild type, KV1772 isolate Y225A
MVV IN Y225A
  other: average molecular mass: 120 kDa

## maedi-visna virus (MVV) integrase, wild type, KV1772 isolate Y261A
MVV IN Y261A
  other: average molecular mass: 100 kDa

## maedi-visna virus (MVV) integrase, wild type, KV1772 isolate Y261E
MVV IN Y261E
  other: average molecular mass: 78 kDa
